Assay results from patent publication US20160032014A1 (Amgen, published 2016).

Assays:
human D374Y PCSK9 [1] = target: T1, human D374Y PCSK9 (human, UniProt Q8NBP7 31-692, limits assumed, biotinylated in the blocking ELISA); experiment: ELISA, blocking of biotin-D374Y PCSK9 binding to LDLR, expt. #2
T1 construct: also called D374Y PCSK9 mutant; biotinylated human D374Y PCSK9

[2] = target: T2, human PCSK9 (self-cleaved, mature, secreted PCSK9 comprising amino acids 31 to 692 of SEQ ID NO: 2) (human, UniProt Q8NBP7 31-692, biotinylated in the ELISAs); experiment: ELISA pH 6, sup 1:625, expt 2
T2 construct: Limits 31-692 are stated for the immunogen; the assays only say human PCSK9; also called huPCSK9; rhu PCSK9

[3] = target: T2, human PCSK9 (self-cleaved, mature, …); experiment: ELISA, supernatant on captured biotin-PCSK9, late primary screen
[4] = target: T2, human PCSK9 (self-cleaved, mature, …); experiment: ELISA pH 7.4, sup 1:125, expt 1
[5] = target: T2, human PCSK9 (self-cleaved, mature, …); experiment: ELISA pH 6, sup 1:125, expt 1
[6] = target: T2, human PCSK9 (self-cleaved, mature, …); experiment: ELISA pH 6, sup 1:125, expt 2
[7] = target: T2, human PCSK9 (self-cleaved, mature, …); experiment: ELISA, sup 1:125, expt 2
[8] = target: T2, human PCSK9 (self-cleaved, mature, …); experiment: ELISA pH 7.4, sup 1:625, expt 2
human D374Y PCSK9 [9] = target: T1, human D374Y PCSK9; experiment: ELISA, blocking of biotin-D374Y PCSK9 binding to LDLR, expt. #1
[10] = target: T2, human PCSK9 (self-cleaved, mature, …); experiment: ELISA pH 6, sup 1:625, expt 1
[11] = target: T2, human PCSK9 (self-cleaved, mature, …); experiment: ELISA, supernatant on captured biotin-PCSK9, early primary screen
[12] = target: T2, human PCSK9 (self-cleaved, mature, …); experiment: ELISA, sup 1:125, expt 1
[13] = target: T2, human PCSK9 (self-cleaved, mature, …); experiment: ELISA, sup 1:625, expt 1
[14] = target: T2, human PCSK9 (self-cleaved, mature, …); experiment: ELISA pH 7.4, sup 1:625, expt 1
[15] = target: T2, human PCSK9 (self-cleaved, mature, …); experiment: ELISA pH 7.4, sup 1:125, expt 2
[16] = target: T2, human PCSK9 (self-cleaved, mature, …); experiment: ELISA, sup 1:625, expt 2
[17] = target: T2, human PCSK9 (self-cleaved, mature, …); experiment: solution equilibrium
[18] = target: T2, human PCSK9 (self-cleaved, mature, …); experiment: solution equilibrium, KinExA or BIAcore, pH 7.4
[19] = target: T2, human PCSK9 (self-cleaved, mature, …); experiment: solution equilibrium, BIAcore, pH 5.5

% Inhibition (human D374Y PCSK9 [1]) [%] | OD 450 nm [2] [OD] | OD 450 nm [3] [OD] | OD 450 nm [4] [OD] | OD 450 nm [5] [OD] | OD 450 nm [6] [OD] | OD diff (pH 7.4 - pH 6) [7] [OD] | OD 450 nm [8] [OD] | % Inhibition (human D374Y PCSK9 [9]) [%] | OD 450 nm [10] [OD] | OD 450 nm [11] [OD] | OD diff (pH 7.4 - pH 6) [12] [OD] | OD diff (pH 7.4 - pH 6) [13] [OD] | OD 450 nm [14] [OD] | OD 450 nm [15] [OD] | OD diff (pH 7.4 - pH 6) [16] [OD] | pH 5.5/7.4 KD ratio [17] | Kd [18] [nM] | Kd [19] [nM] | Binder
92 | 0.8 | 4.2 | 4.2 | 3 | 2.8 | 1.3 | 1.5 | 91 | 0.9 | 6 | 1.2 | 1.6 | 2.5 | 4.1 | 0.7 | – | – | – | 20D12 (antibody, human IgG2, lambda, V domains shown, tested as hybridoma supernatant) VH: QVQLQQWGAGLLKPSETLSLTCAVSGGSFRAYYWNWIRQPPGKGLEWIGEINHSGRTDYNPSLKSRVTISVDTSKNQFSLKLSSVTAADTAVYYCARGQLVPFDYWGQGTLVTVSS VL: not shown
– | – | – | – | – | – | – | – | – | – | – | – | – | – | – | – | 1.9 | 0.078 | 0.15 | SS-15005 (antibody, IgG2, V domains shown, also called 25G4) VH: EVQLLESGGGLVQPGGSLRLSCAASGFTFSSYAMNWVRQAPGKGLEWVSTISGSGGNTYYADSVKGRFTISRDNSKNTLYLQMNSLRAEDTAVYYCAKKFVLMVYAMLDYWGQGTLVTVSS VL: DIQMTQSPSSLSASVGDRVTITCRASQSISIYLNWYQQKPGKAPYLLIYAAASLQSGVPSRFSGSGSGTDFTLTISSLQPEDFATYYCQQSYSAPITFGQGTRLEIKR
93 | 0.5 | 4.3 | 2.1 | 1.3 | 1.7 | 0.9 | 0.5 | 94 | 0.5 | 6 | 0.8 | 0.3 | 0.8 | 2.6 | 0 | – | – | – | 25B5 (antibody, human IgG2, lambda, V domains shown, tested as hybridoma supernatant) VH: QIQLVQSGAEVKKPGASVKVSCKASGYTLTSYGISWVRQAPGQGLEWMGWISFYNGNTNYAQKVQGRVTMTTDTSTSTVYMELRSLRSDDTAVYFCARGYGMDVWGQGTTVTVSS VL: QSALTQPASVSGSPGQSITISCTGTSSDVGGYNSVSWYQQHPGKPPKLMIYEVSNRPSGISNRFSGSKSGNTASLTISGLQAEDEADYFCSSYTSTSMVFGGGTKLAVLR
91 | 1.8 | 3.8 | 3.6 | 2.9 | 2.5 | 1.4 | 2.5 | 89 | 1.9 | 3.7 | 0.7 | 1.2 | 3 | 3.9 | 0.7 | – | – | – | 19A12 (antibody, human IgG2, kappa, V domains shown, tested as hybridoma supernatant) VH: QVQLVESGGGVVQPGRSLRLSCAASGFTFSSYGMHWVRQAPGKGLEWVAVIWYDGSNKYYADSVKGRFTISRDNSKNTLYLQMNSLRAEDTAVYYCVRDRGLDWGQGTLVTVSS VL: not shown
77 | 1.6 | 3.6 | 6 | 3.8 | 4.2 | 1.8 | 1 | 62 | 2 | 3.8 | 2.2 | 1.5 | 3.4 | 6 | -0.6 | – | – | – | 13G9 (antibody, human IgG2, lambda, V domains shown, tested as hybridoma supernatant) VH: QVQLVQSGAEVTKPGASVKVSCKASGYTFTSYGISWVRQAPGQGLEWMGWISVYKGNTNYAQKLQGRVTMTTDTSTSTAYMELRSLRSDDTAVYYCARNYQIFSFDYWGQGTLVTVSS VL: QSVLTQPPSVSGAPGQRVTISCTGSRSNIGAGYDVNWYQQLPGTAPKLLIYGNSNRPSGVPDRFSGSKSGTSASLVITGLQAEDEADYYCQSYDSNLSGSVFGGGTKLTVLG
